Data taken from paper PMC8519570 (2021).

Target: DENV2 sE WT (soluble envelope protein E of dengue virus 2, wild type) (dengue virus 2 (strain 16681))
Assay: BLI

B1: EDE1 C10 quaternary epitope antibody (antibody, V domains shown)
VH: EVQLVESGAEVKKPGASVKVSCKASGYTFTSYAMHWVRQAPGQRLEWMGWINAGNGNTKYSQKFQDRVTITRDTSASTAYMELSSLRSEDTAIYYCARDKVDDYGDYWFPTLWYFDYWGQGTLVTVSS
VL: QSALTQPASVSGSPGQSITISCTGTSSDVGGFNYVSWFQQHPGKAPKLMLYDVTSRPSGVSSRFSGSKSGNTASLTISGLQAEDEADYYCSSHTSRGTWVFGGGTKLTVL
Kd: > 1000 nM
